Measured values from patent US20110206702A1 (Genentech, published 2011).

T1: TAT419 polypeptide (human, UniProt P24530 27-442)
T1 construct: Full-length TAT419 on transfected cells (e.g. 293 cells) or on TAT419-expressing human melanoma cell lines; also called full-length TAT419 polypeptide; cell surface expressed TAT419 polypeptide
T1 sequence: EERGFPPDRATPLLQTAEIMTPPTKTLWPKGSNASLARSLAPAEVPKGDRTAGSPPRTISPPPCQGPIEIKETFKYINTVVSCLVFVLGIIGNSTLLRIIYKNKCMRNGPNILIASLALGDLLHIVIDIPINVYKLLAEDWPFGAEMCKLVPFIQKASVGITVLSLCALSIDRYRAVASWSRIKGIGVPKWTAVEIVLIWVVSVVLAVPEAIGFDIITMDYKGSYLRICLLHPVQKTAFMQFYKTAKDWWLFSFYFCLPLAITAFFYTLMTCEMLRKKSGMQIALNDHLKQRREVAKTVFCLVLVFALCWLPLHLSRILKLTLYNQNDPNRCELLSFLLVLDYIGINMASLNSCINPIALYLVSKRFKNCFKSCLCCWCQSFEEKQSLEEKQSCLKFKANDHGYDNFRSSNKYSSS


Target: T1, TAT419 polypeptide
Test: Western blots, TAT419-derived peptide variants expressed in 293 cells
Description: Binding analysis was also conducted to identify the approximate location of the epitopes. Several TAT419-derived peptide variants were expressed in 293 cells. Western blots were carried out using various of the murine anti-TAT419 monoclonal antibodies described herein.

Row | binding result | Binder
1 | binds | humanized anti-TAT419 antibody hu5E9.v1 (antibody, human IgG1, kappa, V domains shown) VH: EVQLVESGGGLVQPGGSLRLSCAASGYTFTSYWMQWVRQAPGKGLEWIGTIYPGDGDTSYAQKFKGRATLSTDKSKNTAYLQMNSLRAEDTAVYYCARWGYAYDIDNWGQGTLVTVSS VL: DIQMTQSPSSLSASVGDRVTITCKSSQSLLDSDGKTYLNWLQQKPGKAPKRLIYLVSKLDSGVPSRFSGSGSGTDFTLTISSLQPEDFATYYCWQGTHFPYTFGQGTKVEIKR
2 | binds | murine anti-TAT419 monoclonal antibody 5E9 (antibody, mouse IgG2a, kappa, V domains shown, also called murine 5E9) VH: QVQLLQSGAELARPGASVKLSCKASGYTFTSYWMQWVKQRPGQGLEWIGTIYPGDGDTSYAQKFKGKATLTTDKYSSTAYMQLSSLASEDSAVYYCARWGYAYDIDNWGQGTTVTVSS VL: not shown
